In US20110239327A1, “Nematicidal Effects of Cysteine Proteinases and Methods of Use Thereof to Treat Nematode Infestation” (priority 2007, published 2011):

How the values were obtained:
Heterorhabditis megidis = assay: In vitro effect on the beneficial nematode Heterorhabditis megidis; type: cell-based
Experimental: Eggs of M. incognita race 1 from North Carolina State University, USA were collected from tomato-infected roots grown in a glasshouse at 23° C. in a 16:8 h light-dark regime. Eggs were extracted using 1% hypochlorite (NaClO) solution (Hussey and Barker, 1973) or by picking egg masses from tomato-infected roots. Juveniles (J2) were hatched from the eggs and egg masses in water. Heterodera glycines eggs were obtained from soil samples stored in Rothamsted-Research. Second stage juveniles (J2) were hatched from the eggs in water after 10 days. Pratylenchus penetrans were a gift from Dr. Deeren Anne-Marie from the Institute for Agricultural and Fisheries Research, Merelbeke, Belgium. The beneficial nematodes Steinernema feltiae and Heterorhabditis megidis were a gift from Dr. Paul Williams from Becker Underwood.
Control wells were set up which contained J2s and distilled water with 16 mM L-cysteine. Each enzyme concentration and the controls were set up in duplicate (i.e. n=2). The actual number of active J2s per well was counted with the aid of an Olympus inverted microscope, prior to the addition of the enzymes, and then the J2s were incubated in the dark at room temperature for 2 hs, 16 hs, 24 hs or 40 hr. The number of live and dead J2s per well was counted after each enzyme incubation. The same procedure was followed when setting up further experiments to compare the effects of these enzymes with Heterodera glycines J2, Pratylenchus penetrans, Steinernema feltiae and Heterorhabditis megidis.
The beneficial nematodes Hetorhabditis megidis and Steinernema feltiae were incubated with dilutions of actinidin, bromelain and pappain from papaya latex (see concentrations used in table 3). These nematodes reacted differentially to these cysteine proteinases (Tables 4 and 5). […] S. feltiae were dead at all concentrations of actinidin tested. […] After 16 hs of observation the enzyme solutions were diluted with water (to half of the initial concentrations) however, no change in nematode movement was observed after 24 hs.

M. incognita J2 [1] = assay: In planta bioassay, one soil application: nematode infection of tomato roots; type: in vivo, M. incognita on tomato plants; conditions: with or without Vydate 125 μl; for Mean number of nematodes in roots: soil 16% organic matter, 11 days; for Reduction of nematode infection of tomato plants: vs controls
Experimental: (§1) Oxamyl is supplied as 10% liquid Vydate. 125 μl of a solution 1000 fold dilution of 10% formulation (kindly supplied by DK from NIU) was applied to 5 g of the soil mixture with 16% organic matter, to give a partial nematicidal effect. Soil mixtures were wetted with PBS pH 7.2, 16 hrs prior nematode application of 1000 or 2000 M. incognita J2. Infected soil mixtures were treated with water (control) or 250 μM of active papain in 16 mM of L-cysteine or a combination of Vydate and 250 μM of active papain in 16 mM of L-cysteine. After 48 hs tomato seedlings one month old were added to the treated soils. After 11 days the roots were washed free of soil and chopped to approximately 2 mm pieces. The root pieces of each tomato plant was placed in muslin bags and stained with acid-fuchsin. The stained roots were examined under microscope and all the nematodes present in the roots were counted. In some experiments the soil mixture was wetted with PBS pH 7.2 or 250 μM of active papain for 16 hs to block the non-specific binding site present in the soil particles. After that approximately 1000 M. incognita J2 were applied to soil mixtures, followed by application of 250 μM of active papain in presence of 16 mM of L-cysteine, or water (control) or Vydate alone or a combination of 250 μM of active papain in presence of 16 mM of L-cysteine and Vydate. After 48 hours tomato seedlings one month old were added to the treated soils and after 11 days post infection nematode development inside root tissues was assessed as described above.
Approximately 2000 J2 of M. incognita were added to 5 g of 1:6 loam and sand which was previously wetted for 16 hs with PBS pH 7. Then a solution of 300 μM or 150 μM of active papain (in 16 mM of L-cysteine) with and without 125 μl Vydate was added to soil and left to react for 48 hs. After this period of time tomato seedlings one month old were added to the treated soil mixtures and placed in a glasshouse at 23° C. in a 16:8 h light-dark regime (Table 1). After 11 days nematode development in the root tissue was assessed.

M. incognita J2 [2] = assay: In planta bioassay, two soil applications: nematode infection of tomato roots; type: in vivo, M. incognita on tomato plants; conditions: two soil applications of enzyme (250 μM papain, 2.2 μM bromelain, 3.3 mM actinidin as printed), soil 16% organic matter, 11 days
Experimental: as §1, with “In some experiments the soil mixture was wetted with PBS pH 7.2 or 250 μM of active papain for 16 hs to block the non-specific binding site present in the soil particles. After that approximately 1000 M. incognita J2 were applied to soil mixtures, followed by application of 250 μM of active papain in presence of 16 mM of L-cysteine, or water (control) or Vydate alone or a combination of 250 μM of active papain in presence of 16 mM of L-cysteine and Vydate.” left out
The avermectins are macrocyclic lactones produced by the actinomycete Streptomyces avermitilis. […] After 48 hs tomato seedlings one month old were added to the treated soils and after 11 days post infection nematode development inside root tissues was assessed as described above. […]

B1: papain (protein, UniProt P00784 134-345, looked up)
Papain: IPEYVDWRQKGAVTPVKNQGSCGSCWAFSAVVTIEGIIKIRTGNLNEYSEQELLDCDRRSYGCNGGYPWSALQLVAQYGIHYRNTYPYEGVQRYCRSREKGPYAAKTDGVRQVQPYNEGALLYSIANQPVSVVLEAAGKDFQLYRGGIFVGPCGNKVDHAVAAVGYGPNYILIKNSWGTGWGENGYIRIKRGTGNSYGVCGLYTSSFYPVKN
notes: cysteine proteinase from Carica papaya, Merops C01.001, Sigma P3125
Which results are given for B1?
effect on H. megidis (Heterorhabditis megidis; papain 15 μM): not affected anymore; movement of H. megidis (Heterorhabditis megidis; papain 62.4 μM): moving slowly; Mean number of nematodes in roots (M. incognita J2 [1]; papain 150 μM): 272; Reduction of nematode infection of tomato plants (M. incognita J2 [1]; papain 150 μM): 14%; Mean number of nematodes in roots (M. incognita J2 [1]; papain 300 μM): 132; Reduction of nematode infection of tomato plants (M. incognita J2 [1]; papain 300 μM): 60%; reduction of nematode infection of plants (M. incognita J2 [2]): 89%
